This passage reports fold change in constitutive β-arrestin-2 recruitment (with against without cumate) results from article PMC10322906.

In the assay the target is CXCR4-Tango. The experiment in a line: Tango (TEV-cleavage luciferase reporter of arrestin recruitment); Tango-Trio, basal: HTTL-B1 / HTTL-B2 cells transfected with GPCR-Tango constructs, with against without cumate (30 µg/mL) or cumate dose-response, no agonist; in Fig. 7 also with inverse agonists/antagonists at EC80. (Reporter assays use an easily measured gene product as a stand-in for the process of interest.)

Take “β-arrestin2-TEV219 (from UniProt P32121 1-409) (natural protein)”: the fold change in constitutive β-arrestin-2 recruitment (with against without cumate) was found to be 67 fold.
